Test results as given in patent publication US20110052599A1.

Target: TrkB receptor expressed in mouse oocytes (mouse) (UniProt P15209)
Experiment: cell-based or functional assay

recombinant human BDNF (Pepro-Tech, Rocky Hill, N.J.) (from UniProt P23560 19-247) (ligand)
proportion of MII oocytes that developed into blastocyst-stage embryos: 5 fold
proportion of MII oocytes that developed into two-cell stage embryos: 2 fold
proportion of oocytes showing first polar body extrusion (MII-stage oocytes), 3 ng/ml BDNF with 5% FBS: > 2 fold
